Earlier results on 5 substances are cited in publication PMC10451079.

A word on the Kd: it is the equilibrium constant for the complex coming apart.

Targets include megalin (Homo sapiens) (UniProt P98164); MC1R (UniProt Q01726); MC3R (UniProt P41968).
Data set [1] concerns the target NGALR 1-105 (Homo sapiens) (UniProt Q8WUG5).
The target of a further data set is NGALR (Mus musculus) (UniProt Q9D9E0). The data set can be described thus: ligand-cell binding, Scatchard.
A further data set concerns the target MC4R (UniProt P32245). The data set can be described thus: saturation and competition binding.
UniProt P32245, sequence (P32245 whole entry): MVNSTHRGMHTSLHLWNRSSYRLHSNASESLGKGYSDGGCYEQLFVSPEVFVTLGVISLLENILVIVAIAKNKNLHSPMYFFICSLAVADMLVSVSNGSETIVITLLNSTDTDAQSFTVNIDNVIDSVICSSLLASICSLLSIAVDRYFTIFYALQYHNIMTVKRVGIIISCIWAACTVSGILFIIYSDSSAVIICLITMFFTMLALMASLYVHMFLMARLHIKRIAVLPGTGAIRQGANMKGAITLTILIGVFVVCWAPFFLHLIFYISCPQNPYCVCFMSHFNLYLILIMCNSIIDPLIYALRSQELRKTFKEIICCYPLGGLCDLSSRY
Data set [2] concerns the target LRP2 (megalin) (Homo sapiens) (UniProt P98164). In words: SPR. On the technique in general: In SPR one partner is held on a chip, and binding of the other changes the refractive index at the surface.

UniProt Q8WUG5, sequence (Q8WUG5 1-105): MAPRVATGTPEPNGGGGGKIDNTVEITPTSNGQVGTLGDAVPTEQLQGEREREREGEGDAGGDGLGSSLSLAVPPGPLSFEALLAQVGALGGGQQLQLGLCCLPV
UniProt Q9D9E0, sequence (Q9D9E0 whole entry): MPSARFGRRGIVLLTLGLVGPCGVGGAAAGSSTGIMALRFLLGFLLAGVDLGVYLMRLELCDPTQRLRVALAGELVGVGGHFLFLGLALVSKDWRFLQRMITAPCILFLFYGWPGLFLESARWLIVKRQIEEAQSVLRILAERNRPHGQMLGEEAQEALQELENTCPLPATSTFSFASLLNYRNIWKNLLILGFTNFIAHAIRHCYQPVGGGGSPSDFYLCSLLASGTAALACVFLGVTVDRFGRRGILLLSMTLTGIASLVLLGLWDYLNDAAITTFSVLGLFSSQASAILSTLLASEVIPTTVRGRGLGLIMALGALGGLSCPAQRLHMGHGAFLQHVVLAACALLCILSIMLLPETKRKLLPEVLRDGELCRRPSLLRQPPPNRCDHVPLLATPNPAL
UniProt P41968, sequence (P41968 whole entry): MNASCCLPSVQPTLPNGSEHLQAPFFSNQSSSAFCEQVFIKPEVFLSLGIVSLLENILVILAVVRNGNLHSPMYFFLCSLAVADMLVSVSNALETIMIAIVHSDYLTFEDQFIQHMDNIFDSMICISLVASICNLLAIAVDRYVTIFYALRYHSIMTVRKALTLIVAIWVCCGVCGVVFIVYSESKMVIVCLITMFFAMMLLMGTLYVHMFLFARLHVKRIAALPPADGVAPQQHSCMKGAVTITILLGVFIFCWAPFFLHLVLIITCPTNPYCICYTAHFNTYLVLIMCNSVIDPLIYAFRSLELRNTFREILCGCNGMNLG
UniProt Q01726, sequence (Q01726 whole entry): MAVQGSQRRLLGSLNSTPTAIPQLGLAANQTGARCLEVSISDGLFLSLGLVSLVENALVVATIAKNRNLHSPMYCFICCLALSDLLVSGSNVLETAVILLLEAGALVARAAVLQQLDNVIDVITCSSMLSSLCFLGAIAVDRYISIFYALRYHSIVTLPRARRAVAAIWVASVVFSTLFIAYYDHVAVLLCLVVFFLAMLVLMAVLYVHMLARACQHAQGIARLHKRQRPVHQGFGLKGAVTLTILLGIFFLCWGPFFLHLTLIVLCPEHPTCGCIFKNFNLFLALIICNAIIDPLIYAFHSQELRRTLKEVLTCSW

With “LCN2 with ferric-enterobactin (from UniProt P80188)”, the Kd in data set [1] was 20 µM.
For the substance LCN2 (24p3) (from UniProt P11672), the Kd with NGALR (Mus musculus) is 0.092 nM.
As for α1M (from UniProt P02760), in the data set with megalin (Homo sapiens), the Kd is 420 nM.
For LCN2 (from UniProt P11672), the results for the Kd with MC1R, with MC4R and with MC3R were 87 nM, 51.4 nM and 82.1 nM, respectively.
As to LCN2 (from UniProt P80188), the Kd in data set [2] is 60 nM.
